Data as given in PMC6692557.

Molecular target: HgdA (All5345), putative nucleoside-diphosphate-sugar epimerase / UDP-galactose 4-epimerase of Anabaena sp. PCC 7120 (Anabaena sp. PCC 7120)
Assay: SEC; Superdex 75 10/300 on an ÄKTA system, Tris buffer (20 mmol/L Tris, 200 mmol/L NaCl, pH 7.5); masses calibrated with standard proteins (Gel Filtration LMW Calibration Kit)

Question: Which stoichiometry N does the source give for “HgdA (All5345), putative nucleoside-diphosphate-sugar epimerase / UDP-galactose 4-epimerase of Anabaena sp. PCC 7120 (enzyme)” here?
Answer: The stoichiometry N was 2.
